From US7329737 (DYAX, dated 2008)

Target: T1, hK1 (human tissue kallikrein 1), recombinant (human, UniProt P06870 25-262)
T1 construct: Expressed in P. pastoris from KLK1 cDNA and purified; enzymatically active; also called KLK1; Recombinant (Pichia) Kallikrein
Experiment: SPR

Binder	Kd [nM]	koff [s⁻¹]	kon [M⁻¹ s⁻¹]
M0094-E08 (Fab, V domains shown) VH: EVQLLESGGGLVQPGGSLRLSCAASGFTFSFYAMVWVRQAPGKGLEWVSYISPSGGATWYADSVKGRFTISRDNSKNTLYLQMNSLRAEDTAVYYCAKPSRPRYYYDSSGYYSSAFDIWGQGTMVTVSS VL: AQSVLTQPASVSGSPGQSITISCTGTSSDVGAYNYVSWYQQHPGKVPELMIYDVSNRPSGVSHRFSGSKSGNTASLTISGLQAEDDADYYCSSFTSRKTWVFGTGTKVTVLG	3.34	0.00053	159000
M0139-F09 (Fab, V domains shown) VH: EVQLLESGGGLVQPGGSLRLSCAASGFTFSHYVMAWVRQAPGKGLEWVSRIGPSGGYTMYADSVKGRFTISRDNSKNTLYLQMNSLRAEDTAVYYCARVGVWYGMDVWGQGTTVTVSS VL: DIQMTQSPGTLSLSPGERATLSCRASQSVSSSYLAWYQQKPGQAPRLLIYGASSRATGIPDRFSGSGSGTDFTLTISSLQLEDFGTYFCQQSYRSPYTFGQGTKVDIKR	3.6	0.00108	301000
M0138-B10 (Fab, V domains shown) VH: EVQLLESGGGLVQPGGSLRLSCAASGFTFSHYSMTWVRQAPGKGLEWVSRIYPSGGRTGYADSVKGRFTISRDNSKNTLYLQMNSLRAEDTAVYYCATDSGGYYYGMDVWGQGTTVTVSS VL: not shown	3.36	0.00089	265000

Continued by falling Kd, values first:

Kd [nM]	koff [s⁻¹]	kon [M⁻¹ s⁻¹]	Binder
3.29	0.00341	1.04e+06	M0111-C10 (Fab, V domains shown) VH: EVQLLESGGGLVQPGGSLRLSCAASGFTFSRYVMSWVRQAPGKGLEWVSSIRSSGGRTMYADSVKGRFTISRDNSKNTLYLQMNSLRAEDTAVYYCARVGVWYGMDVWGQGTTVTVSS VL: DIQMTQSPSSLSASVGDRVTITCRASQSISSYLNWYQQKPEKAPQLLIFAASSLQSGVPSRFSGSGSGTDFTLTISSLQPEDFATYYCQQSYNAPWTFGQGTKVEIRR
3.26	0.000346	106000	M0097-F04 (Fab, V domains shown) VH: EVQLLESGGGLVQPGGSLRLSCAASGFTFSPYQMWWVRQAPGKGLEWVSSISSSGGLTRYADSVKGRFTISRDNSKNTLYLQMNSLRAEDMAVYYCARVKLNYYGSGSYSLDAFDIWGQGTNGHRLKRLHQGPIGLPASTLLQEH VL: AQYELTQPPSASGTPGQRVTISCSGSSSNIGSNYVHWYQQLPGTAPKLLIYRNNRRPSGVPDRFSGSKSGTSASLAISGLRSEDEADYYCAAWDDSLSGLVVFGGGTKLTVLGQPKAAP
3.1	0.000376	121000	M0135-C12 (Fab, V domains shown) VH: EVQLLESGGGLVQPGGSLRLSCAASGFTFSRYHMSWVRQAPGKGLEWVSSIRPSGGSTIYADSVKGRFTISRDNSKNTLYLQMNSLRAEDTAVYYCAREPRRYYYDSSGSYDAFDIWGQGTMVTVSS VL: AQSELTQPPSMSGTPGQRVIISCSGSNSNIGNNFVYWYQQVAGSAPKLLIFRNNQRPSGVPDRFTVSKSGASASLAIGGLRSEDEADYYCAAWDDSLSGVLFGGGTKVTVLG
2.66	0.000625	235000	M0135-F03 (Fab, V domains shown) VH: EVQLLESGGGLVQPGGSLRLSCAASGFTFSHYVMIWVRQAPGKGLEWVSWIYPSGGNTIYADSVKGRFTISRDNSKNTLYLQMNSLRAEDTATYYCARVGVWYGMDVWGQGTTVTVSS VL: DIQMTQSPATLSLSPGERATLSCRASQSVSSYLAWYQQKPGQAPRLLIYDASNRATGIPARFSGSGSGTDFTLTISSLEPEDFAVYYCQQRSNWPSPIAFGQGTRLEIKR
2.43	0.00138	567000	M0104-H12 (Fab, V domains shown) VH: EVQLLESGGGLVQPGGSLRLSCAASGFTFSYYQMSWVRQAPGKGLEWVSRIGPSGGLTSYADSVKGRFTISRDNSKNTLYLQMNSLRAEDTAVYYCARVGVWYGMDVWGQGTLVTVSS VL: AQSELTQPPSASGSPGQSVTISCTGTSSDVGAYNYVSWYQQHPGKAPKLIIYEVNKRPSGVPDRFSASKSGNTASLTVSGLQAEDEADYYCNSYAGSNSLIFGGGTKLTVLG
